From US20190201542A1 (AbbVie / Abbott, published 2019)

T1: human DLL3 (human, UniProt Q9NYJ7 27-492, limits assumed)
T1 construct: also called hDLL3; DLL3 protein
T1 sequence: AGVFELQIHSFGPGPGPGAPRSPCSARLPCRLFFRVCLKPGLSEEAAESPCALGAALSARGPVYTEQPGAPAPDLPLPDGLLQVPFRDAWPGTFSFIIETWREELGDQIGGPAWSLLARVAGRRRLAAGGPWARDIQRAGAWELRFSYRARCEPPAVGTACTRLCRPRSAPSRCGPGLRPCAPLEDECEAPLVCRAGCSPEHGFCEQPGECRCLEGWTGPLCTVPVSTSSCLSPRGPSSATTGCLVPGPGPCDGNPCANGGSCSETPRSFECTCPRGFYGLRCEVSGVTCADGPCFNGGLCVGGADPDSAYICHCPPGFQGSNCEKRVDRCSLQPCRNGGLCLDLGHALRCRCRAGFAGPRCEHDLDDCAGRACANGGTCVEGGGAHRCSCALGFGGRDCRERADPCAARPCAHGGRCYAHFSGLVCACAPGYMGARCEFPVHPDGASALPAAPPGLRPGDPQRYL

T2: human ASCL1 (human, UniProt P50553 1-236, limits assumed)
T2 construct: Transcription factor; also called hASCL1; immobilized human ASCL1
T2 sequence (looked up): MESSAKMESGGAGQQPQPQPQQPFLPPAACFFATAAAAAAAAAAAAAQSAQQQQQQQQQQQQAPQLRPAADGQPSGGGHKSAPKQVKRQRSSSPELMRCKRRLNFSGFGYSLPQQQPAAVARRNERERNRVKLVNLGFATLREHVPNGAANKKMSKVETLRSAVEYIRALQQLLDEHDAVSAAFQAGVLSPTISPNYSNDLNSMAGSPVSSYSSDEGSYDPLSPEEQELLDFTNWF

B1: chimeric SC16.34 (antibody, human IgG1, kappa, V domains shown)
VH: QIQLVQSGPELKRPGETVKISCKASGYTFTNYGMNWVKQAPGKGLKWMGWINTYTGDPTYADDFKGRFAFSLETSASTAYLQINNLKNEDTATYFCARIGGNSPSDYWGQGTSLTVSS
VL: SIVMTQTPKFLLVSAGDRVTITCKASQSVSNDVAWYQQKPGQSPKLLIYYASNRYSGVPDRFTGSGYGTDFTFTISTVQAEDLAVYFCQQDYSSPWTFGGGTKLEIKR
notes: murine V regions on human IgG1/kappa; also called chimeric parent antibody of hSC16.34
B2: chimeric SC16.56 (antibody, human IgG1, kappa, V domains shown)
VH: QIQLVQSGPELKKPGETVKISCKASGYTFTNYGMNWVKQAPGKGLKWMAWINTYTGEPTYADDFKGRFAFSLETSASTASLQIINLKNEDTATYFCARIGDSSPSDYWGQGTTLTVSS
VL: SIVMTQTPKFLLVSAGDRVTITCKASQSVSNDVVWYQQKPGQSPKLLIYYASNRYTGVPDRFAGSGYGTDFSFTISTVQAEDLAVYFCQQDYTSPWTFGGGTKLEIRR
notes: murine V regions on human IgG1/kappa; also called chimeric parent antibody of hSC16.56
B3: hSC16.15 (antibody, human IgG1, kappa, V domains shown)
VH: QVQLVQSGAEVKKPGASVKVSCKASGYTFTRYWIHWIRQAPGQGLEWMGYINPTTVYTEFNQNFKDRVTMTRDTSTSTVYMELSSLRSEDTAVYYCARGGSNFFDYWGQGTTVTVSS
VL: AIQLTQSPSSLSASVGDRVTITCRASENIYYNLAWYQQKPGKAPKLLIYTANSLEDGVPSRFSGSGSGTDFTLTISSLQPEDFATYFCKQAYDVPPTFGGGTKLEIKR
notes: humanized IgG1/kappa; also called humanized SC16.15
B4: chimeric SC16.25 (antibody, human IgG1, kappa, V domains shown)
VH: QVTLKESGPGILQPSQTLSLTCSFSGFSLSTSGMGVGWIRQPSGEGLEWLTDIWWDDNKYYNPSLKSRLTISKDTSSNQVFLNITSVDTADTATYYCARRVNYYYDPYYAMDYWGQGTSVTVSS
VL: QIVLTQSPAIMSASPGEKVTMTCSASSSVSYMHWYQQKSGTSPKRWIYDSSKLASGVPARFSGSGSGTSYSLTISSMEAEDAATYYCQQWSSNPLTFGAGTKLELKR
notes: murine V regions on human IgG1/kappa; also called chimeric parent antibody of hSC16.25
B5: hSC16.13 (antibody, human IgG1, kappa, V domains shown)
VH: QITLKESGPTLVKPTQTLTLTCTFSGFSLSTSGMGVGWIRQPPGKALEWLAHIWWDDVKRYSPSLKSRLTITKDTSKNQVVLTMTNMDPVDTATYYCARIVSFDNDVVSAMDYWGQGTLVTVSS
VL: DIQMTQSPSSLSASVGDRVTITCSASSSVSYMYWYQQKPGKAPKLLIYLTSNLASGVPSRFSGSGSGTDFTLTISSLQPEDFATYYCQQWRSNPFTFGQGTKLEIKR
notes: humanized IgG1/kappa; also called humanized SC16.13
B6: hSC16.25 (antibody, human IgG1, kappa, V domains shown)
VH: QITLKESGPTLVKPTQTLTLTCTFSGFSLSTSGMGVGWIRQPPGKALEWLTDIWWDDNKYYNPSLKSRLTITKDTSKNQVVLTMTNMDPVDTATYYCARRVNYYYDPYYAMDYWGQGTLVTVSS
VL: EIVLTQSPDFQSVTPKEKVTITCSASSSVSYMHWYQQKPDQSPKLLIKDSSKLASGVPSRFSGSGSGTDFTLTINSLEAEDAATYYCQQWSSNPLTFGQGTKLEIKR
notes: humanized IgG1/kappa; also called humanized SC16.25
B7: SC72.28 (antibody, V domains shown)
VH: DVQLQQSGAELVRPGALVKLSCKASGFNIKDYLIHWVKQRPEQGLEWIGCIDPENGNTIYDPRFQGKAKITSDTSSTTAYLRLTSLTSEDTAVYYCGRGGLDYWGQGTTLTVSS
VL: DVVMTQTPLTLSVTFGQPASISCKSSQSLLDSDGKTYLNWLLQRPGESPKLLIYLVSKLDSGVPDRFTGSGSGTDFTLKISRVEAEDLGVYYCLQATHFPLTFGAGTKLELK
notes: murine mAb
B8: SC72.132 (antibody, V domains shown)
VH: EVKLVESEGGLVQPGSSMKLSCTASGFTFSDYYMAWVRQVPEKGLEWVATIDYDGSNTYYLDSLKSRFIISRDNAKNILYLQMSSLKSEDTATYYCARDGGYDEDYFDYWGQGTTLTVSS
VL: DIVMSQSPSSLAVSVGEKVTLSCKSSQTLLYSSNQQNYLAWYQQKPGQSPKLLIYWASTRESGVPDRFTGSGSGTDFTLTISSVKAEDLAVYYCHQYYTYPFTFGSGTKLEIK
notes: murine mAb
B9: SC72.165 (antibody, V domains shown)
VH: QVQLQQPGAELVRPGASVRLSCKASGYSFTSYWINWVKQRPGQGLEWIGNIYPGSSNTNYNEKFKRKATLTVDTSSSTAYMQLSSLTSDDSAVYYCARSESDYWGQGTTLTVSS
VL: DIVLTQSPASLAVSPGQRATISCKASQSVGYDGDTYLSWYQQKPGQPPKLLIYGVSILESGIPARFSGSGSGTDFTLNIHPVEEEDAATYYCQQSSEDPYTFGGGTKLEIK
notes: murine mAb
B10: SC72.216 (antibody, V domains shown)
VH: QIQLVQSGPELRKPGETVKISCKASGYTFTNYPMHWVKQAPGKGFKWMGWINTYSGVPSYADDFKGRFAFSLETSASSAYLQINNLKNEDMATYFCARHNYNSYDVFAYWGQGTLVTVSA
VL: DIVVTQSPASLAVSLGQRATISCKASQSVDYDGDSYMNWYQQKPGQPPKLLIYGASNLESGIPARFSGSGSGTDFTLNIHPVEEEDAATYYCQQSNEDPYTFGGGTKLEIK
notes: murine mAb
B11: SC72.181 (antibody, V domains shown)
VH: QVQLQQPGAEVVKPGASVRLSCKASGYTFTSYWINWVKQRPGQGLEWIGNIYPGSSSTNYNEKFKSKATLTVDTSSSTAYMQLSSLTSDDSAVYYCSRSESDYWGQGTTLTVSS
VL: DIVLTQSPASLAVSLGQRATISCKASQSVDDDGGTYMSWYQQKPGQPPKLLIYGVFILESGIPARFSGSGSGTDFTLNIHPVEEEDAATYYCQQSNEDPYTFGGGTKLEIK
notes: murine mAb
B12: SC72.93 (antibody, V domains shown)
VH: QVQLQQSGAELVRPGASVTLSCKASGYIFIDYEMHWVKQTPVHGLEWIGSIDPETGDTVYNQKFKGKATLTADKSSSTAYMELRSLTSEDSAVYYCSRGGLDYWGQGTTLTVSS
VL: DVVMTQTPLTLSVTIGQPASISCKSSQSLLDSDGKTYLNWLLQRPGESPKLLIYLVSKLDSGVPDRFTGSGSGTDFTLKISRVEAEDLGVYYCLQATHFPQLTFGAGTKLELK
notes: murine mAb; same VL as SC72.2
B13: SC72.91 (antibody, V domains shown)
VH: QVQLQQSGPEVVKPGASVKLSCKASGYTFTTYDINWVKQRPGQGLEWIGWIYFRDGTNKYNEKFKGKATLTVDTSSSTAYMELHSLTSEDSAVYFCASVYDGYYVSGFDIMDYWGQGTSVTVSS
VL: DVVLTQTPLSLPVSLGDQASIYCRSSQSIVHSNGNTYFEWYLQKPGQSPKLLIYKVSNRLSGVPDRFSGSGSGTDFTLKISRVEAVDLGIYYCFQASHVPFTFGAGTKLELK
notes: murine mAb
B14: SC72.94 (antibody, V domains shown)
VH: QVQLQQPGTELVKPGASVKLSCKASAYTFTSLWIHWVKQRPGQGLEWIGDINPSIGDTYYNERFKSKATLTVDKSSSTAYMQLSSLTSEDSAVYYCTTGDSWGQGTTLTVSS
VL: DIQMNQSPSSLSASLGDTITITCRASQGISIWLSWYQQKPGNIPKLLIYKASNLHTGVPPSFSGSGSGTDFTLTISSLQPEDIATYYCLQSQSYPWTFGGGTKLEIK
notes: murine mAb
B15: SC72.96 (antibody, V domains shown)
VH: EVQLQQSGPELVKPGASVKMSCKASGYTLTAYNIHWVKQSHGKSLEWIGFINPHSGGTTYNEKFKGKATLTVNKSSSTANMELRSLTSEDSAVYYCASIYYYGSSYFDHWGQGTTLTVSS
VL: DIQMTQSPASLSASVGETVTMTCRASENIHSNLVWYQQKQGKSPQLLVYAATNLADGVPSRFSGSGSGSQFSLKIDSLQPEDFGSYLCQHFYGTPRTFGGGTKLEIK
notes: murine mAb
B16: SC72.52 (antibody, V domains shown)
VH: QVQLQQPGSVLVRPGASVKLSCKASGYTFTSYWMHWVKQRPGQGLEWIGEIYPNSGRTNYNEKFKGKATLTVDTSSSTAYVDLSSLTSEDSAVYYCHYYDDNYGYWGQGTTLTVSS
VL: DIVITQDELSNPVTSGESVSISCRSSKSLLYKDGKTYLNWFLQRPGQSPQLLIYLMSTRASGVSDRFSGSGSGTDFTLEISRVKAEDVGVYYCQQFVEYPLTFGAGTKLELK
notes: murine mAb
B17: SC72.76 (antibody, V domains shown)
VH: QVQLKESGPGLVAPSQSLSITCTVSDFSLTNYAVHWVRQSPGKGLEWLGVIWSDGNTDYNAPFISRLSISKDNSKSQVFFKMNSLQADDTAIYYCASYGDSAYWGQGTLVTVSA
VL: DIVLTQSPASLTVSLGQRATISCRASQSVRTSNYSYMHWYQQKPGQPPKLLIKYASNLESGVPARFSGSGSGTDFTLNIHPVEEEDTATYYCQHHWEIPFTFGGGTKLEIK
notes: murine mAb
B18: SC72.63 (antibody, V domains shown)
VH: EVQLLQSGPELVKPGASVKMSCKASGYTLTDYNLHWVKQSHAKSLEWIGYINPYNGVTSYNQRFKGKATLTVNKSSSTAFMEFRSLTSEDSAVYYCVSLYYGDDPFACWGQGTLVTVST
VL: DIQMTQSPASLSASVGETVTMTCRASENIYSNLAWYQQKQGKSPQLLVYAATNLADDVPSRFSGSGSGTQFSLKINSLQPEDFGIYYCHHFYGSPLTFGAGTKLELK
notes: murine mAb
B19: SC72.201 (antibody, V domains shown)
VH: EVNLEESGGGLVQPGGSMKLSCVASGFTFSNYWMNWVRQSPEKGLEWVAQIRSKSDNYATHYAESVKGRFTISRDDSKSSVYLQMNNLRSEDTGIYYCRTGPDVWGTGTTVTVSS
VL: DIQMTQSPASLSVSVGETVTITCRASENIYSSLAWYQQKQGNSPQLLVYAATKLADGVPSRFSGSGSGTQYSLKINSLQSEDFGSYYCQHFWGTTWTFGGGTKLEIK
notes: murine mAb

These binders were tested against T1, human DLL3 (assay: surface plasmon resonance).

Binding result, binds:
B1
B2
B3
B4
B5
B6

Each binder was assayed against T2, human ASCL1 (assay: screen on immobilized hASCL1 or h293-hASCL1 cells).

Binding result, binds:
B7
B8
B9
B10
B11
B12
B13
B14
B15
B16
B17
B18
B19
